Assay results published in patent publication US20030145347.

Columns and labels:
[1] = test system: soybean thioredoxin prep without S-tag (recombinant, expressed in E. coli from pNOV4112, S-Tag removed by thrombin cleavage)
[2] = test system: rice thioredoxin with S-tag (recombinant, expressed in E. coli from pNOV4113)
[3] = test system: soybean thioredoxin with S-tag (recombinant, expressed in E. coli from pNOV4112)

For “Arabidopsis NADPH thioredoxin reductase without S-tag (recombinant, expressed in E. coli from pNOV4115)”, the “reduction of thioredoxin, DTNB assay” value [1] was “can reduce soybean thioredoxin with and without the S-tag”, the “reduction of thioredoxin in vitro” value [2] was “Arabidopsis thioredoxin reductase is found to be active in reducing rice thioredoxin in vitro” and the “reduction of thioredoxin, DTNB assay” value [2] was “can also reduce rice thioredoxin”. For the same substance, the “reduction of thioredoxin, DTNB assay” value [3] was “can reduce soybean thioredoxin with and without the S-tag”.

Substance “soybean thioredoxin prep without S-tag (recombinant, expressed in E. coli from pNOV4112, S-Tag removed by thrombin cleavage)” has an OD 650 nm (after 31 minutes), insulin reduction assay, thioredoxin 4 ug as printed in the row (insulin) of 0.001 OD 650 nm, an OD 650 nm (after 31 minutes), insulin reduction assay, thioredoxin 5 ug as printed in the row (insulin) of 0.0077 OD 650 nm and an OD 650 nm (after 31 minutes), insulin reduction assay, thioredoxin 6 ug as printed in the row (insulin) of 0.0084 OD 650 nm. It also gave an OD 650 nm (after 31 minutes), insulin reduction assay, thioredoxin 7 ug as printed in the row (insulin) of 0.0117 OD 650 nm, a Rate of Precipitation (change of A650/min), insulin reduction assay, thioredoxin 4 ug as printed in the row (insulin) of 3.2e-05 A650/min and a Rate of Precipitation (change of A650/min), insulin reduction assay, thioredoxin 5 ug as printed in the row (insulin) of 0.00025 A650/min. It also gave a Rate of Precipitation (change of A650/min), insulin reduction assay, thioredoxin 6 ug as printed in the row (insulin) of 0.00027 A650/min and a Rate of Precipitation (change of A650/min), insulin reduction assay, thioredoxin 7 ug as printed in the row (insulin) of 0.00038 A650/min.
